Legend:
Shroom3 = target: T1, Shroom3 (Mus musculus, UniProt Q9QXN0); assay: ELISA of purified SD2 / biotin-R2-C1 interaction; wash-out irreversibility, DTT block and Cys-to-Ala mutagenesis; assay type: binding
T1 construct: SD2 domain (aa 1,563–1,986)
T1 sequence (Q9QXN0 1563-1986): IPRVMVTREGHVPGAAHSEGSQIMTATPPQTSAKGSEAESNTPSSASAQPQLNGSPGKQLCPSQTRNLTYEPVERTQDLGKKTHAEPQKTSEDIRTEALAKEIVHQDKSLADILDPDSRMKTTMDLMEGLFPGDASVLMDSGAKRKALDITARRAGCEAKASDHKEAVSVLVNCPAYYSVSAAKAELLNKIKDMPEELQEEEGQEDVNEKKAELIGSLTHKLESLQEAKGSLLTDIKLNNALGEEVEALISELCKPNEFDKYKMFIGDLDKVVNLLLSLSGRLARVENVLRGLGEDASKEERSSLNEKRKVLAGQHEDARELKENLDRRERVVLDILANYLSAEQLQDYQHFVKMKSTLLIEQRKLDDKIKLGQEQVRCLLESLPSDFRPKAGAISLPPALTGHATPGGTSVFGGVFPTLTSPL
T1 sequence (P70336 698-957 partner): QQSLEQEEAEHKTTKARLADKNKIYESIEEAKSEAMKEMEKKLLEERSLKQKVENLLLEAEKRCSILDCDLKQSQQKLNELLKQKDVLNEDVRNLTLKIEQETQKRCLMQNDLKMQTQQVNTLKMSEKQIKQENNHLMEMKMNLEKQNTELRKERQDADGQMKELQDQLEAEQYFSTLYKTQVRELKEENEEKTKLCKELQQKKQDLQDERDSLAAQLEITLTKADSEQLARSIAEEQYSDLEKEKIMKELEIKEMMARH

[1] = target: T2, Shroom3 SD2 domain (aa 1,563–1,986), GST removed (mouse, UniProt Q9QXN0 1563-1986); assay: ELISA; 0.5 µg SD2 immobilised on 96-well Immulon 2B high binding plates; Biotin-R2C1 0 to 1,778 nM (11 points) for 1 h at 25°C in TBS-1 (20 mM Tris HCl, 150 mM KCl, 0.5% Triton X-100, pH 7.9) with 0.5% BSA; NeutrAvidin-HRP; apparent Kd, hyperbolic fit; details: both partners purified
T2 construct: Shroom3 SD2 domain, mouse, aa 1,563-1,986; Expressed as GST-SD2 from pGST-SD2; also called WT SD2; SD2 wild type; source: E. coli, purified (glutathione agarose; GST removed with TEV protease)
T2 sequence (looked up): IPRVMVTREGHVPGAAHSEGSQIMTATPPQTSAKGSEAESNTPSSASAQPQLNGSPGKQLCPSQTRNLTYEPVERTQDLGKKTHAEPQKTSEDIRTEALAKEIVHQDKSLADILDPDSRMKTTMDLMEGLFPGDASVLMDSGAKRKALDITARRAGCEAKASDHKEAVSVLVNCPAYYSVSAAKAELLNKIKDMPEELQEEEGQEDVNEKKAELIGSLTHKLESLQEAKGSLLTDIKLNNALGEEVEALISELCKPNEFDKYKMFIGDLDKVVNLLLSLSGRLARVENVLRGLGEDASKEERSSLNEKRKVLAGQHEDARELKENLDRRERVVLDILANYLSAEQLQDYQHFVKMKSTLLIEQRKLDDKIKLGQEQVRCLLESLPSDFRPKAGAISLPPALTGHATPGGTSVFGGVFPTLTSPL

SD2 Cys379Ala (ELISA) = target: T3, SD2 Cys379Ala (ELISA) (mouse, UniProt Q9QXN0 1563-1986, Cys379Ala (SD2 numbering; mouse Shroom3 Cys1941)); assay: ELISA; 150 ng SD2 (wild type or mutant) immobilised on 384-well high-binding plates; CCG-17444 dilutions 30 min at 25°C, then 10 ng biotin-R2C1 (1.5 ng in Figure 4) 1 h at 25°C; buffer A (20 mM Tris HCl, 150 mM KCl, 0.05% Triton X-100, 0.5% BSA, pH 7.9); NeutrAvidin-HRP; also with 1 mM DTT; details: both partners purified
T3 construct: Shroom3 SD2 domain, mouse, aa 1,563-1,986; SD2 Cys379 corresponds to mouse Shroom3 Cys1941 (AAF13269)
T3 sequence (looked up): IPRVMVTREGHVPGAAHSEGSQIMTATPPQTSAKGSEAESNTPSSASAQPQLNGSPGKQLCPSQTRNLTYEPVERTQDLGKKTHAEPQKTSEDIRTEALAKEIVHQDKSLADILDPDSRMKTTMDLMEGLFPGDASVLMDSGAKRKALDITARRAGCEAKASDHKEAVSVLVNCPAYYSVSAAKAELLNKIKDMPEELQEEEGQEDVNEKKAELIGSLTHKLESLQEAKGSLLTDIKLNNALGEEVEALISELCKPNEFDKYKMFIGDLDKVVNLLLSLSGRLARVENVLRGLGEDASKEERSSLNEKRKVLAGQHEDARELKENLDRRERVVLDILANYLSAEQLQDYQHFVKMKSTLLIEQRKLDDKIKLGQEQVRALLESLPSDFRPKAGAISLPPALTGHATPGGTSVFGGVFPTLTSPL

[2] = target: T4, SD2 Cys254Ala Cys379Ala (ELISA) (mouse, UniProt Q9QXN0 1563-1986, Cys254Ala (SD2 numbering; Cys 1816 in full length mouse Shroom3) | Cys379Ala …); assay: as above; details: both partners purified
T4 construct: Shroom3 SD2 domain, mouse, aa 1,563-1,986; also called double mutant SD2 Cys254Ala Cys379Ala; double Cys to Ala mutant
T4 sequence (looked up): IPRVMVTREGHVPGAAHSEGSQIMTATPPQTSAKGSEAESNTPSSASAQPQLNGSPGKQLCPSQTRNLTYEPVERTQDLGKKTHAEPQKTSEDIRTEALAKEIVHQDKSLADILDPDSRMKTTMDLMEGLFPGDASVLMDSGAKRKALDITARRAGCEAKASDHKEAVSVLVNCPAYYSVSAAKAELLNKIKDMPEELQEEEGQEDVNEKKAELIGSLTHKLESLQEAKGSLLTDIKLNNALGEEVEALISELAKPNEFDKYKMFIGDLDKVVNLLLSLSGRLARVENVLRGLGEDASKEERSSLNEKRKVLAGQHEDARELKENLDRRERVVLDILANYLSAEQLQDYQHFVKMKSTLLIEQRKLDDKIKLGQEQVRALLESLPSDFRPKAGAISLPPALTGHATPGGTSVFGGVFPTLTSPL

SD2 Cys254Ala (ELISA) = target: T5, SD2 Cys254Ala (ELISA) (mouse, UniProt Q9QXN0 1563-1986, Cys254Ala (SD2 numbering; Cys 1816 in full length mouse Shroom3)); assay: as above; details: both partners purified
T5 construct: Shroom3 SD2 domain, mouse, aa 1,563-1,986; also called Cys254Ala mutant
T5 sequence (looked up): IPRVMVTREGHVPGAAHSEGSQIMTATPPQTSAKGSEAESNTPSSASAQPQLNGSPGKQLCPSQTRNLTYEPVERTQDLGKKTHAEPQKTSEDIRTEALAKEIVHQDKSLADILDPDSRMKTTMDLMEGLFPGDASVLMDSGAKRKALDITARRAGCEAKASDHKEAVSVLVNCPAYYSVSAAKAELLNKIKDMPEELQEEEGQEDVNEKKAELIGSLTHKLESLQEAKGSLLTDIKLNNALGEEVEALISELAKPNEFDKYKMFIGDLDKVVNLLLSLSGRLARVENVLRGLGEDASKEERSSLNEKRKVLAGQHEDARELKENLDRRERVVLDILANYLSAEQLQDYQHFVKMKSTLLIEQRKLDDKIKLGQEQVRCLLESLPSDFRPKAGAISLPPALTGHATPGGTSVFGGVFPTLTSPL

[3] = target: T6, GST-SD2 wild type (mouse Shroom3 aa 1,563–1,986) (mouse, UniProt Q9QXN0 1563-1986); assay: pull-down; wild type or mutant GST-SD2 (5 μg) bound to glutathione agarose resin, incubated overnight with His-Sumo-R2-C1 (12.5 μg); washed 3× Triton IP buffer, 1× PBS; SDS-PAGE, Coomassie G-250; details: both partners purified
T6 construct: Shroom3 SD2 domain, mouse, aa 1,563-1,986; also called wild type GST-SD2; WT SD2
T6 sequence (looked up): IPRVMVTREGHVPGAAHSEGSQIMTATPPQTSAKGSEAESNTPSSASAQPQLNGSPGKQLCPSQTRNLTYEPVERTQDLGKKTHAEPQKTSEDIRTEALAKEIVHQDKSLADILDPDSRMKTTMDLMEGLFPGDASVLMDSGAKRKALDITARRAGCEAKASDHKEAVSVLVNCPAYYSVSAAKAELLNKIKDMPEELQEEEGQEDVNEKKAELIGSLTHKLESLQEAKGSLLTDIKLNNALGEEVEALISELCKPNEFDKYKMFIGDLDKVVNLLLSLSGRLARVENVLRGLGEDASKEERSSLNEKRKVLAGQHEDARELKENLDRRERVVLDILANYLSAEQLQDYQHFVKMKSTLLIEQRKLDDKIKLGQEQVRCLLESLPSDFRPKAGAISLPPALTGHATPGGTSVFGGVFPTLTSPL

[4] = target: T7, GST-SD2 Cys254Ala (mouse Shroom3 aa 1,563–1,986, Cys1816Ala) (mouse, UniProt Q9QXN0 1563-1986, Cys254Ala (SD2 numbering; Cys 1816 in full length mouse Shroom3)); assay: as above; details: both partners purified
T7 construct: Shroom3 SD2 domain, mouse, aa 1,563-1,986; Probably made in E. coli like the wild type; also called mutant GST-SD2; Cys254Ala SD2
T7 sequence (looked up): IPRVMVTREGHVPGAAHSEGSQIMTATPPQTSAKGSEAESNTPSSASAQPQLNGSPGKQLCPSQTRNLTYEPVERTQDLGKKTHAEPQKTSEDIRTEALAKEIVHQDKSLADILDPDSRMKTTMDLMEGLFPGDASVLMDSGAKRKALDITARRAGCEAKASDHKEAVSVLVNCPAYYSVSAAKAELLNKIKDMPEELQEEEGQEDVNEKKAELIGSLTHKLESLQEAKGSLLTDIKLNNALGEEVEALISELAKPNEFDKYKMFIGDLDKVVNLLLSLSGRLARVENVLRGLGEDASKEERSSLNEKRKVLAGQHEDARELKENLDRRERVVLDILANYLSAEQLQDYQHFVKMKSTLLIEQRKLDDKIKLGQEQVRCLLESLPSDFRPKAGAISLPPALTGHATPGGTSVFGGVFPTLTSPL

[5] = target: T2, Shroom3 SD2 domain (aa 1,563–1,986), …; assay: ELISA; competition: SD2 immobilised; 100 ng Biotin-R2C1 incubated 1 h at 25°C with unlabeled R2C1 (1–10 µg); NeutrAvidin-HRP; details: both partners purified

Work on `CC1(C)CC(=O)C2=C(C1)Nc1[nH]c(=S)[nH]c(=O)c1C2c1cccs1` (centres unmarked) [CCG-17444] yielded an IC50 (Shroom3) of 12.4 ± 2.3 µM.

B1: Biotinylated HisSUMO-R2C1 (mouse ROCK II aa 698–957) (domain or fragment, UniProt P70336 698-957, looked up)
chain: QQSLEQEEAEHKTTKARLADKNKIYESIEEAKSEAMKEMEKKLLEERSLKQKVENLLLEAEKRCSILDCDLKQSQQKLNELLKQKDVLNEDVRNLTLKIEQETQKRCLMQNDLKMQTQQVNTLKMSEKQIKQENNHLMEMKMNLEKQNTELRKERQDADGQMKELQDQLEAEQYFSTLYKTQVRELKEENEEKTKLCKELQQKKQDLQDERDSLAAQLEITLTKADSEQLARSIAEEQYSDLEKEKIMKELEIKEMMARH
modifications: biotin (NHS-PEO4-biotin; on average four biotin molecules per 1 mol of protein)
notes: No removal of the His-SUMO tag is described; also called Biotin-R2C1; biotinylated R2-C1; source: E. coli, purified (HisPur Ni-NTA), biotinylated with NHS-PEO4-biotin
With B1 the Kd [1] was 0.0049 µM, the binding result (SD2 Cys379Ala (ELISA)) was “binds” and the binding result [2] was “binds”. B1: binds (SD2 Cys254Ala (ELISA)).

B2: HisSUMO-R2C1 (mouse ROCK II aa 698–957), unlabeled (domain or fragment, UniProt P70336 698-957, looked up)
chain: QQSLEQEEAEHKTTKARLADKNKIYESIEEAKSEAMKEMEKKLLEERSLKQKVENLLLEAEKRCSILDCDLKQSQQKLNELLKQKDVLNEDVRNLTLKIEQETQKRCLMQNDLKMQTQQVNTLKMSEKQIKQENNHLMEMKMNLEKQNTELRKERQDADGQMKELQDQLEAEQYFSTLYKTQVRELKEENEEKTKLCKELQQKKQDLQDERDSLAAQLEITLTKADSEQLARSIAEEQYSDLEKEKIMKELEIKEMMARH
notes: also called Unlabeled R2-C1; unlabeled R2C1; source: E. coli, purified (HisPur Ni-NTA)
B2: binds [3]; binds [4]; binds [5].
